Measured values as given in patent CN113150138A.

Biological target: 重组KPC-2蛋白 (recombinant KPC-2 protein, Klebsiella pneumoniae carbapenemase KPC-2) (Klebsiella pneumoniae (肺炎克雷伯菌)) (UniProt Q848S6)
Assay: indirect ELISA, KPC-2 coated at 100 ng/well, antibody diluted 1:10000 to 1:2560000

UniProt Q848S6, sequence (Q848S6 25-293): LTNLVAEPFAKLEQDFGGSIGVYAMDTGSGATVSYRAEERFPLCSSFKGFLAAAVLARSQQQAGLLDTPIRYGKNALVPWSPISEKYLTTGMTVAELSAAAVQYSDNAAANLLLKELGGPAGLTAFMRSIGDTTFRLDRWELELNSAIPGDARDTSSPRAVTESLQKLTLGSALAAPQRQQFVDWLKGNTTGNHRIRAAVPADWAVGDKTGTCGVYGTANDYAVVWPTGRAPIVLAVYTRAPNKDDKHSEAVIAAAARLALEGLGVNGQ

B1: KPC-2单克隆抗体 1D7 (antibody, V domains shown)
VH: EVQLQQSGPELVKPGASMKISCKASGYSFTGYTMNWVKQSHGKNLEWIGLINPYNGVTTYNQRFKDKATLTVDKSSITAYMELLSLTSEDSAVYYCARRGLLGLYAMDYWGQGTSVTVSS
VL: DVQITQSPSYLAASPGETITINCRASESIFKFLAWYQEKPGKTNRLLIYSGSTLQSGIPSRFSGSGSGTDFTLTISSLEPEDFAMYYCQQHNEYPLTFGAGTKLELK
Work on B1 yielded a 效价 (ELISA titer, highest positive dilution) (dilution factor) of over 2e+06.

B2: KPC-2单克隆抗体 4B2 (antibody, V domains shown)
VH: QVQLQQPGAELVKPGASVKMSCKASGYTFTSYNMHWVKQTPGQGLEWIGGLYPGNGDTSYNQKFKGRATLTADKSSSTAYMKLSSLTSEDSAVYFCARVGYGHYYFDYWGQGTTLTVSS
VL: DIKMTQSPSSMYASLGERVTIICKASQDINNYLSWFQQKPGKSPKTLIYRANRLAEGVPSRFSGIGSGQDYSLTISSLEYEDMGIYYCLQYDEFPLTFGAGTKLELK
In the case of B2, the 效价 (ELISA titer, highest positive dilution) (dilution factor) is reported as over 2e+06.
